{"source": "the supplement of paper PMC9112550", "about": "“Optimization of the antimicrobial peptide Bac7 by deep mutational scanning” (BMC Biology, 2022);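 note: peptides expressed intracellularly from a pBAD plasmid library in pooled LB shake-flask culture, induced with 0.3% L-arabinose, DNA abundance read by NGS, three biological replicates, DESeq2 with apeglm shrinkage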"}
{"tested_on": "Escherichia coli TOP10", "assay": "shrunken log2 fold change of peptide-encoding DNA abundance (4.5 h post-induction vs induction); higher = less antimicrobial activity (less host growth inhibition)", "conditions": "time post-induction: 4.5 h; library: site-saturation at positions 5, 18, 19, 20"}
{"sequence": "RRIRSRPPRLPRPRPRPISWPRP", "shrunken log2 fold change": -0.186}
{"sequence": "RRIRDRPPRLPRPRPRPWSGPRP", "shrunken log2 fold change": -0.0455}
{"sequence": "RRIRIRPPRLPRPRPRPVRSPRP", "shrunken log2 fold change": 0.373}
{"sequence": "RRIRLRPPRLPRPRPRPVATPRP", "shrunken log2 fold change": 0.282}
{"sequence": "RRIRWRPPRLPRPRPRPCFMPRP", "shrunken log2 fold change": -0.0873}
{"sequence": "RRIRSRPPRLPRPRPRPSKSPRP", "shrunken log2 fold change": -0.361}
{"sequence": "RRIRCRPPRLPRPRPRPDTLPRP", "shrunken log2 fold change": -0.96}
{"sequence": "RRIRQRPPRLPRPRPRPFLFPRP", "shrunken log2 fold change": -0.288}
{"sequence": "RRIRRRPPRLPRPRPRPQWKPRP", "shrunken log2 fold change": 0.016}
{"sequence": "RRIRSRPPRLPRPRPRPAVEPRP", "shrunken log2 fold change": 0.39}
{"sequence": "RRIRNRPPRLPRPRPRPKPKPRP", "shrunken log2 fold change": 0.211}
{"sequence": "RRIRLRPPRLPRPRPRPKHNPRP", "shrunken log2 fold change": -0.384}
{"sequence": "RRIRKRPPRLPRPRPRPFANPRP", "shrunken log2 fold change": -0.0377}
{"sequence": "RRIRHRPPRLPRPRPRPSVLPRP", "shrunken log2 fold change": -0.242}
{"sequence": "RRIRKRPPRLPRPRPRPIKMPRP", "shrunken log2 fold change": 0.0326}
{"sequence": "RRIRMRPPRLPRPRPRPALWPRP", "shrunken log2 fold change": 0.858}
{"sequence": "RRIRPRPPRLPRPRPRPVPEPRP", "shrunken log2 fold change": 0.0758}
{"sequence": "RRIRARPPRLPRPRPRPQVPPRP", "shrunken log2 fold change": 0.117}
{"sequence": "RRIRKRPPRLPRPRPRPNEQPRP", "shrunken log2 fold change": 0.11}
{"sequence": "RRIRQRPPRLPRPRPRPKVHPRP", "shrunken log2 fold change": -0.0859}
{"sequence": "RRIRQRPPRLPRPRPRPSITPRP", "shrunken log2 fold change": -0.731}
{"sequence": "RRIRRRPPRLPRPRPRPDQAPRP", "shrunken log2 fold change": -0.00925}
{"sequence": "RRIRRRPPRLPRPRPRPQMCPRP", "shrunken log2 fold change": 0.0865}
{"sequence": "RRIRYRPPRLPRPRPRPYMIPRP", "shrunken log2 fold change": -0.0298}
{"sequence": "RRIRHRPPRLPRPRPRPQWWPRP", "shrunken log2 fold change": -0.0314}
{"sequence": "RRIRRRPPRLPRPRPRPSHKPRP", "shrunken log2 fold change": -0.0351}
{"sequence": "RRIRFRPPRLPRPRPRPCFHPRP", "shrunken log2 fold change": -0.894}
{"sequence": "RRIRGRPPRLPRPRPRPKDTPRP", "shrunken log2 fold change": 0.61}
{"sequence": "RRIRQRPPRLPRPRPRPSETPRP", "shrunken log2 fold change": -0.216}
{"sequence": "RRIRMRPPRLPRPRPRPDPYPRP", "shrunken log2 fold change": -0.0396}
{"sequence": "RRIRRRPPRLPRPRPRPWNDPRP", "shrunken log2 fold change": -0.345}
{"sequence": "RRIRNRPPRLPRPRPRPCVAPRP", "shrunken log2 fold change": -0.23}
{"sequence": "RRIRMRPPRLPRPRPRPNIWPRP", "shrunken log2 fold change": 0.785}
{"sequence": "RRIRPRPPRLPRPRPRPWSVPRP", "shrunken log2 fold change": -0.101}
{"sequence": "RRIRFRPPRLPRPRPRPDRNPRP", "shrunken log2 fold change": -0.182}
{"sequence": "RRIRQRPPRLPRPRPRPTGFPRP", "shrunken log2 fold change": 0.051}
{"sequence": "RRIRERPPRLPRPRPRPIKRPRP", "shrunken log2 fold change": -0.171}
{"sequence": "RRIRKRPPRLPRPRPRPGSEPRP", "shrunken log2 fold change": 0.66}
{"sequence": "RRIRVRPPRLPRPRPRPPNPPRP", "shrunken log2 fold change": 0.379}
{"sequence": "RRIRHRPPRLPRPRPRPQLFPRP", "shrunken log2 fold change": -0.172}
{"sequence": "RRIRCRPPRLPRPRPRPIKRPRP", "shrunken log2 fold change": -0.628}
{"sequence": "RRIRFRPPRLPRPRPRPVMRPRP", "shrunken log2 fold change": 0.518}
{"sequence": "RRIRSRPPRLPRPRPRPLWDPRP", "shrunken log2 fold change": -0.134}
{"sequence": "RRIRWRPPRLPRPRPRPRGYPRP", "shrunken log2 fold change": 0.209}
{"sequence": "RRIRRRPPRLPRPRPRPRDQPRP", "shrunken log2 fold change": 0.341}
{"sequence": "RRIRIRPPRLPRPRPRPQHCPRP", "shrunken log2 fold change": -0.248}
{"sequence": "RRIRFRPPRLPRPRPRPSPYPRP", "shrunken log2 fold change": -0.481}
{"sequence": "RRIRVRPPRLPRPRPRPEINPRP", "shrunken log2 fold change": -0.00259}
{"sequence": "RRIRGRPPRLPRPRPRPWVYPRP", "shrunken log2 fold change": -0.0165}
{"sequence": "RRIRCRPPRLPRPRPRPYPMPRP", "shrunken log2 fold change": -0.424}
{"sequence": "RRIRQRPPRLPRPRPRPGHPPRP", "shrunken log2 fold change": 0.0393}
{"sequence": "RRIRRRPPRLPRPRPRPSIFPRP", "shrunken log2 fold change": -0.192}
{"sequence": "RRIRMRPPRLPRPRPRPAHWPRP", "shrunken log2 fold change": 0.792}
{"sequence": "RRIRTRPPRLPRPRPRPFEPPRP", "shrunken log2 fold change": -0.231}
{"sequence": "RRIRTRPPRLPRPRPRPRFRPRP", "shrunken log2 fold change": 0.158}
{"sequence": "RRIRDRPPRLPRPRPRPKVMPRP", "shrunken log2 fold change": -0.054}
{"sequence": "RRIRRRPPRLPRPRPRPTMTPRP", "shrunken log2 fold change": 0.487}
{"sequence": "RRIRDRPPRLPRPRPRPMCHPRP", "shrunken log2 fold change": 0.216}
{"sequence": "RRIRFRPPRLPRPRPRPFDTPRP", "shrunken log2 fold change": -0.486}
{"sequence": "RRIRKRPPRLPRPRPRPSCNPRP", "shrunken log2 fold change": 0.149}
{"sequence": "RRIRWRPPRLPRPRPRPWAEPRP", "shrunken log2 fold change": 0.267}
{"sequence": "RRIRHRPPRLPRPRPRPPWGPRP", "shrunken log2 fold change": 0.347}
{"sequence": "RRIRTRPPRLPRPRPRPDFPPRP", "shrunken log2 fold change": -0.178}
{"sequence": "RRIRARPPRLPRPRPRPTTMPRP", "shrunken log2 fold change": 0.156}
{"sequence": "RRIRYRPPRLPRPRPRPFFMPRP", "shrunken log2 fold change": -0.71}
{"sequence": "RRIRFRPPRLPRPRPRPWWVPRP", "shrunken log2 fold change": 0.00262}
{"sequence": "RRIRARPPRLPRPRPRPDLMPRP", "shrunken log2 fold change": 0.354}
{"sequence": "RRIRKRPPRLPRPRPRPWWDPRP", "shrunken log2 fold change": -0.0115}
{"sequence": "RRIRVRPPRLPRPRPRPLTNPRP", "shrunken log2 fold change": -0.447}
{"sequence": "RRIRTRPPRLPRPRPRPIAEPRP", "shrunken log2 fold change": 0.0307}
{"sequence": "RRIRRRPPRLPRPRPRPSTWPRP", "shrunken log2 fold change": 0.00308}
{"sequence": "RRIRWRPPRLPRPRPRPCPAPRP", "shrunken log2 fold change": -0.0319}
{"sequence": "RRIRGRPPRLPRPRPRPFWCPRP", "shrunken log2 fold change": -0.0505}
{"sequence": "RRIRVRPPRLPRPRPRPRPNPRP", "shrunken log2 fold change": 0.381}
{"sequence": "RRIRCRPPRLPRPRPRPEEEPRP", "shrunken log2 fold change": 0.375}
